In patent US20090311283A1 one finds binding affinity ratio (IC50 of standard peptide / IC50 of test peptide) data, which are given here for one molecule.

Holding throughout (conditions): remark: other sources report otherwise
Test [1] concerns the target HLA-A*0201 (Human).
Test [2] addresses HLA-A*6802 (Human).
Test [3] has as its target HLA-A*0203 (Human).

On to FTFSPTYKA (modifications not checked) [HBV POL 656 …], for which the figures for the binding affinity ratio (IC50 of standard peptide / IC50 of test peptide) in test [1], in test [2] and in test [3] were 0.0056, 7.3 and 0.0031, respectively.
